Target: Human OX40-Fc (human) (UniProt P43489)
Assay: ELISA

Chain of Human OX40-Fc (human) (P43489 29-214): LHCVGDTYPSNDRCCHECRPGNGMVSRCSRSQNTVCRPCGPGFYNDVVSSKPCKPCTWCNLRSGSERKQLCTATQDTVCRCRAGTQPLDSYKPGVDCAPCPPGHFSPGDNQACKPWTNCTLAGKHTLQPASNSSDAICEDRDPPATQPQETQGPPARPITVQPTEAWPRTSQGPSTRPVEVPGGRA

EC50	Molecule
60.2 nM	scOX40L-scCD27L (from UniProt P23510 51-183; P23510 51-183; P23510 51-183; P32970 52-193; P32970 52-193; P32970 52-193) (ligand)
14.3 nM	scCD27L-scOX40L (from UniProt P32970 52-193; P32970 52-193; P32970 52-193; P23510 51-183; P23510 51-183; P23510 51-183) (ligand)

Target: Human CD40-Fc (human, UniProt P25942 21-193)
Assay: ELISA

Chain of Human CD40-Fc (P25942 21-193): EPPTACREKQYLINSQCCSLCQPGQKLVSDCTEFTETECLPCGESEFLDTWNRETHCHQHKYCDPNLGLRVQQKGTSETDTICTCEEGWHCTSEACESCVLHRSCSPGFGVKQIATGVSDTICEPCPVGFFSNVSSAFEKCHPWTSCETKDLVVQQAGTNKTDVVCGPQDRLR

EC50	Molecule
12.3 nM	CD40L-CD27L (ligand, human) GDQNPQIAAHVISEASSKTTSVLQWAEKGYYTMSNNLVTLENGKQLTVKRQGLYYIYAQVTFCSNREASSQAPFIASLCLKSPGRFERILLRAANTHSSAKPCGQQSIHLGGVFELQPGASVFVNVTDPSQVSHGTGFTSFGLLKLGGGGSGGGGSGGGGSSLGWDVAELQLNHTGPQQDPRLYWQGGPALGRSFLHGPELDKGQLRIHRDGIYMVHIQVTLAICSSTTASRHHPTTLAVGICSPASRSISLLRLSFHQGCTIASQRLTPLARGDTLCTNLTGTLLPSRNTDETFFGVQWVRP

Target: the molecule itself
Assay: SEC

Molecule	stoichiometry N
CD40L-OX40L (ligand, human) GDQNPQIAAHVISEASSKTTSVLQWAEKGYYTMSNNLVTLENGKQLTVKRQGLYYIYAQVTFCSNREASSQAPFIASLCLKSPGRFERILLRAANTHSSAKPCGQQSIHLGGVFELQPGASVFVNVTDPSQVSHGTGFTSFGLLKLGGGGSGGGGSGGGGSQVSHRYPRIQSIKVQFTEYKKEKGFILTSQKEDEIMKVQNNSVIINCDGFYLISLKGYFSQEVNISLHYQKDEEPLFQLKKVRSVNSLMVASLTYKDKVYLNVTTDNTSLDDFHVNGGELILIHQNPGEFCVL	3
OX40L-4-1BBL (ligand, human) QVSHRYPRIQSIKVQFTEYKKEKGFILTSQKEDEIMKVQNNSVIINCDGFYLISLKGYFSQEVNISLHYQKDEEPLFQLKKVRSVNSLMVASLTYKDKVYLNVTTDNTSLDDFHVNGGELILIHQNPGEFCVLGGGGSGGGGSGGGGSGGGGSREGPELSPDDPAGLLDLRQGMFAQLVAQNVLLIDGPLSWYSDPGLAGVSLTGGLSYKEDTKELVVAKAGVYYVFFQLELRRVVAGEGSGSVSLALHLQPLRSAAGAAALALTVDLPPASSEARNSAFGFQGRLLHLSAGQRLGVHLHTEARARHAWQLTQGATVLGLFRVTPEIPAGLPSPRSE	3
OX40L-CD27L (ligand, human) QVSHRYPRIQSIKVQFTEYKKEKGFILTSQKEDEIMKVQNNSVIINCDGFYLISLKGYFSQEVNISLHYQKDEEPLFQLKKVRSVNSLMVASLTYKDKVYLNVTTDNTSLDDFHVNGGELILIHQNPGEFCVLGGGGSGGGGSGGGGSSLGWDVAELQLNHTGPQQDPRLYWQGGPALGRSFLHGPELDKGQLRIHRDGIYMVHIQVTLAICSSTTASRHHPTTLAVGICSPASRSISLLRLSFHQGCTIASQRLTPLARGDTLCTNLTGTLLPSRNTDETFFGVQWVRP	3
CD27L-CD40L (ligand, human) SLGWDVAELQLNHTGPQQDPRLYWQGGPALGRSFLHGPELDKGQLRIHRDGIYMVHIQVTLAICSSTTASRHHPTTLAVGICSPASRSISLLRLSFHQGCTIASQRLTPLARGDTLCTNLTGTLLPSRNTDETFFGVQWVRPGGGGSGGGGSGGGGSGDQNPQIAAHVISEASSKTTSVLQWAEKGYYTMSNNLVTLENGKQLTVKRQGLYYIYAQVTFCSNREASSQAPFIASLCLKSPGRFERILLRAANTHSSAKPCGQQSIHLGGVFELQPGASVFVNVTDPSQVSHGTGFTSFGLLKL	3
CD27L-4-1BBL (ligand, human) SLGWDVAELQLNHTGPQQDPRLYWQGGPALGRSFLHGPELDKGQLRIHRDGIYMVHIQVTLAICSSTTASRHHPTTLAVGICSPASRSISLLRLSFHQGCTIASQRLTPLARGDTLCTNLTGTLLPSRNTDETFFGVQWVRPGGGGSGGGGSGGGGSGGGGSREGPELSPDDPAGLLDLRQGMFAQLVAQNVLLIDGPLSWYSDPGLAGVSLTGGLSYKEDTKELVVAKAGVYYVFFQLELRRVVAGEGSGSVSLALHLQPLRSAAGAAALALTVDLPPASSEARNSAFGFQGRLLHLSAGQRLGVHLHTEARARHAWQLTQGATVLGLFRVTPEIPAGLPSPRSE	3
CD27L-OX40L (ligand, human) SLGWDVAELQLNHTGPQQDPRLYWQGGPALGRSFLHGPELDKGQLRIHRDGIYMVHIQVTLAICSSTTASRHHPTTLAVGICSPASRSISLLRLSFHQGCTIASQRLTPLARGDTLCTNLTGTLLPSRNTDETFFGVQWVRPGGGGSGGGGSGGGGSQVSHRYPRIQSIKVQFTEYKKEKGFILTSQKEDEIMKVQNNSVIINCDGFYLISLKGYFSQEVNISLHYQKDEEPLFQLKKVRSVNSLMVASLTYKDKVYLNVTTDNTSLDDFHVNGGELILIHQNPGEFCVL	3
OX40L-CD40L (ligand, human) QVSHRYPRIQSIKVQFTEYKKEKGFILTSQKEDEIMKVQNNSVIINCDGFYLISLKGYFSQEVNISLHYQKDEEPLFQLKKVRSVNSLMVASLTYKDKVYLNVTTDNTSLDDFHVNGGELILIHQNPGEFCVLGGGGSGGGGSGGGGSGDQNPQIAAHVISEASSKTTSVLQWAEKGYYTMSNNLVTLENGKQLTVKRQGLYYIYAQVTFCSNREASSQAPFIASLCLKSPGRFERILLRAANTHSSAKPCGQQSIHLGGVFELQPGASVFVNVTDPSQVSHGTGFTSFGLLKL	3
